Data from the supplement of paper PMC10567573.

B1: RAB40B (parent)
chain: YSLTTSSTHKRSSLRKVKLVRPPQ

Variants of: B1
Assay: protein stability index of a GFP-peptide fusion (GPS, HEK-293T) (PSI 1-6); higher = more stable
Conditions: c terminus: a fixed tail appended
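Further: lentivirally expressed fusions sorted by FACS into six bins by GFP to DsRed ratio, PSI derived from sequencing read proportions per bin multiplied by bin number.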

Row | Variant | protein stability index
1 | YSLTTSSCHKRSSLRKVKLVRPPQ [T8C] | 2.8
2 | YSLTTSSTHKRSSLRKCKLVRPPQ [V17C] | 2.91
3 | YSLTTSSTHKRSSLRKGKLVRPPQ [V17G] | 3.12
4 | YSLTTSSTHKRSSLRKEKLVRPPQ [V17E] | 3.5
5 | YSLTTSSTHKRSSLRKAKLVRPPQ [V17A] | 3.28
6 | YSLTTSSTHKRSSLRKHKLVRPPQ [V17H] | 3.55
7 | YSLTTSSTHKRSSLRKIKLVRPPQ [V17I] | 2.63
8 | YSLTTSSTHKRSSLRKFKLVRPPQ [V17F] | 2.67
9 | YSLTTSSTHKRSSLRKDKLVRPPQ [V17D] | 3.33
10 | YSLTTSSTHKYSSLRKVKLVRPPQ [R11Y] | 2.51
11 | YSLTTSSTHKQSSLRKVKLVRPPQ [R11Q] | 3.46
12 | YSLTTSSTHKDSSLRKVKLVRPPQ [R11D] | 3.4
13 | YSLTTSSTHKGSSLRKVKLVRPPQ [R11G] | 2.83
14 | YSLTTSSTHKHSSLRKVKLVRPPQ [R11H] | 3.15
15 | YSLTTSSTHKKSSLRKVKLVRPPQ [R11K] | 3.17
16 | YSLTTSSTHKNSSLRKVKLVRPPQ [R11N] | 2.87
17 | YSLTTSSTHKESSLRKVKLVRPPQ [R11E] | 3.33
18 | YSLTTSSTHKWSSLRKVKLVRPPQ [R11W] | 1.87
19 | YSLTTSSTHKLSSLRKVKLVRPPQ [R11L] | 2.3
20 | YSLTTSSTHKTSSLRKVKLVRPPQ [R11T] | 3.67
21 | YSLTTSSTHKASSLRKVKLVRPPQ [R11A] | 3.68
22 | YSLTTSSTHKCSSLRKVKLVRPPQ [R11C] | 2.59
23 | YSLTTSSTHKFSSLRKVKLVRPPQ [R11F] | 2.32
24 | YSLTTSSTHKISSLRKVKLVRPPQ [R11I] | 2.46

Row | Variant | protein stability index
25 | YSLTTSSTHKMSSLRKVKLVRPPQ [R11M] | 2.99
26 | YSLTTSSTHKPSSLRKVKLVRPPQ [R11P] | 2.75
27 | YSLTTSSTHKSSSLRKVKLVRPPQ [R11S] | 2.77
28 | YSLTTSSTHKVSSLRKVKLVRPPQ [R11V] | 2.52
29 | YSLTTSPTHKRSSLRKVKLVRPPQ [S7P] | 3.47
30 | YSLTTSQTHKRSSLRKVKLVRPPQ [S7Q] | 2.9
31 | YSLTTSVTHKRSSLRKVKLVRPPQ [S7V] | 2.7
32 | YSLTTSTTHKRSSLRKVKLVRPPQ [S7T] | 2.81
33 | YSLTTSWTHKRSSLRKVKLVRPPQ [S7W] | 2.24
34 | YSLTTSYTHKRSSLRKVKLVRPPQ [S7Y] | 2.35
35 | YSLTTSRTHKRSSLRKVKLVRPPQ [S7R] | 2.62
36 | YSLTTSNTHKRSSLRKVKLVRPPQ [S7N] | 2.98
37 | YSLTTSMTHKRSSLRKVKLVRPPQ [S7M] | 2.42
38 | YSLTTSSTHKRSLLRKVKLVRPPQ [S13L] | 2.45
39 | YSLTTSSTHKRSHLRKVKLVRPPQ [S13H] | 3.18
40 | YSLTTSSTHKRSGLRKVKLVRPPQ [S13G] | 2.86
41 | YSLTTSSTHKRSNLRKVKLVRPPQ [S13N] | 3.21
42 | YSLTTSSTHKRSTLRKVKLVRPPQ [S13T] | 2.4
43 | YSLTTSSTHKRSKLRKVKLVRPPQ [S13K] | 3.49
44 | YSLTTSSTHKRSILRKVKLVRPPQ [S13I] | 2.74
45 | YSLTTSSTHKRSALRKVKLVRPPQ [S13A] | 3.25
46 | YSLTTSSTHKRSELRKVKLVRPPQ [S13E] | 3.21
47 | YSLTTSSTHKRSPLRKVKLVRPPQ [S13P] | 3.4
48 | YSLTTSSTHKRSDLRKVKLVRPPQ [S13D] | 2.58

Row | Variant | protein stability index
49 | YSLTTSSTHKRSCLRKVKLVRPPQ [S13C] | 3.01
50 | YSLTTSSTHKRSMLRKVKLVRPPQ [S13M] | 2.47
51 | YSLTTSSTHKRSWLRKVKLVRPPQ [S13W] | 1.69
52 | YSLTTSSTHKRSFLRKVKLVRPPQ [S13F] | 2.12
53 | YSLTTSSTHKRSVLRKVKLVRPPQ [S13V] | 3.06
54 | YSLTTSSTHKRSQLRKVKLVRPPQ [S13Q] | 3.35
55 | YSLTTSSTHKRSRLRKVKLVRPPQ [S13R] | 3.4
56 | YSLTTSSTHKRSYLRKVKLVRPPQ [S13Y] | 2.53
57 | YSLTTSSTHARSSLRKVKLVRPPQ [K10A] | 3.14
58 | YSLTTSSTHPRSSLRKVKLVRPPQ [K10P] | 2.92
59 | YSLTTSSTHMRSSLRKVKLVRPPQ [K10M] | 3.3
60 | YSLTTSSTHRRSSLRKVKLVRPPQ [K10R] | 3.18
61 | YSLTTSSTHFRSSLRKVKLVRPPQ [K10F] | 2.62
62 | YSLTTSSTHHRSSLRKVKLVRPPQ [K10H] | 2.68
63 | YSLTTSSTHNRSSLRKVKLVRPPQ [K10N] | 2.85
64 | YSLTTSSTHDRSSLRKVKLVRPPQ [K10D] | 3.23
65 | YSLTTSSTHYRSSLRKVKLVRPPQ [K10Y] | 3.05
66 | YSLTTSSTHIRSSLRKVKLVRPPQ [K10I] | 2.02
67 | YSLTTSSTHWRSSLRKVKLVRPPQ [K10W] | 1.89
68 | YSLTTSSTHVRSSLRKVKLVRPPQ [K10V] | 2.55
69 | YSLTTSSTHQRSSLRKVKLVRPPQ [K10Q] | 2.3
70 | YSLTTSSTHGRSSLRKVKLVRPPQ [K10G] | 3.21
71 | YSLTTSSTHCRSSLRKVKLVRPPQ [K10C] | 2.3
72 | YSLTTSSTHERSSLRKVKLVRPPQ [K10E] | 3.67

Row | Variant | protein stability index
73 | YSLTTSSTHTRSSLRKVKLVRPPQ [K10T] | 2.43
74 | YSLTTSSTHLRSSLRKVKLVRPPQ [K10L] | 2.81
75 | YSLTTSSTHSRSSLRKVKLVRPPQ [K10S] | 3.02
76 | YSLTTSSTNKRSSLRKVKLVRPPQ [H9N] | 3.11
77 | YSLTTSSTEKRSSLRKVKLVRPPQ [H9E] | 2.72
78 | YSLTTSSTDKRSSLRKVKLVRPPQ [H9D] | 3.22
79 | YSLTTSSTWKRSSLRKVKLVRPPQ [H9W] | 1.82
80 | YSLTTSSTQKRSSLRKVKLVRPPQ [H9Q] | 3.62
81 | YSLTTSSTSKRSSLRKVKLVRPPQ [H9S] | 3.42
82 | YSLTTSSTIKRSSLRKVKLVRPPQ [H9I] | 2.61
83 | YSLTTSSTTKRSSLRKVKLVRPPQ [H9T] | 3.32
84 | YSLTTSSTAKRSSLRKVKLVRPPQ [H9A] | 2.75
85 | YSLTTSSTCKRSSLRKVKLVRPPQ [H9C] | 2.72
86 | YSLTTSSTYKRSSLRKVKLVRPPQ [H9Y] | 2.38
87 | YSLTTSSTFKRSSLRKVKLVRPPQ [H9F] | 2.91
88 | YSLTTSSTKKRSSLRKVKLVRPPQ [H9K] | 3.29
89 | YSLTTSSTRKRSSLRKVKLVRPPQ [H9R] | 3.29
90 | YSLTTSSTLKRSSLRKVKLVRPPQ [H9L] | 3.26
91 | YSLTTSSTPKRSSLRKVKLVRPPQ [H9P] | 3.08
92 | YSLTTSSTGKRSSLRKVKLVRPPQ [H9G] | 3.23
93 | YSLTTSSTVKRSSLRKVKLVRPPQ [H9V] | 2.65
94 | YSLTTSSTMKRSSLRKVKLVRPPQ [H9M] | 2.52
